Laboratory results reported in US12398179 (SANFORD BURNHAM PREBYS MEDICAL DISCOVERY INSTITUTE, dated 2025).
Where two headings read alike, the source gives them in different places. Each block holds one binder with its values, some of them ahead of it. Non-standard residues stand in square brackets, D forms with d. No end group written: not given here. *: point of attachment. Biotin = O=C1N[C@H]2[C@H](CS[C@H]2CCCCC(=O)*)N1; βAla = NCCC(=O)O

Tests used:
[1] = target: T1, endogenous EphA2 expressed in PC3 prostate cancer cells (UniProt P29317 24-976, limits assumed); assay: cell-based or functional assay
[2] = target: T2, EphA2 extracellular domain fused to the Fc portion of an antibody (EphA2 Fc); assay: competition ELISA: inhibition of ephrin-A5 AP binding to immobilized EphA2 Fc; average ± SE (number of experiments)
T2 construct: extracellular domain; Immobilized in the ELISAs

[3] = target: T1, endogenous EphA2 expressed in PC3 …; assay: cell-based or functional assay; remark: listed apart in the source
[4] = target: T1, endogenous EphA2 expressed in PC3 …; assay: cell-based or functional assay; remark: listed apart in the source
[5] = target: the molecule itself; assay: quantitative FRET in HEK293 cells, monomer-dimer fit; dimerization of the mutant without peptide; row assigned as for Kdiss
[6] = target: the molecule itself; assay: quantitative FRET in HEK293 cells, monomer-dimer fit; dimerization of the mutant in the presence of 50 µM YSA-GSGSK-bio; row assigned as for Kdiss
[7] = target: T3, EphA2 ligand binding domain (EphA2 LBD, residues 28-200) with N-terminal MASQGPG and C-terminal Ala-6xHis tag (UniProt P29317 28-200); assay: ITC, peptide titrated into EphA2 LBD, 23 °C; average ± SE (number of experiments)
T3 construct: range 28-200; Expressed in E. coli Origami 2 (DE3); used for ITC and crystallization
Method: For ITC, all peptides were dissolved in DMSO and both the EphA2 LBD and the peptides were diluted to obtain a final buffer containing 9.5 mM HEPES, pH 7.9, 95 mM NaCl, and 5% DMSO. […] Two-microliter aliquots of a peptide solution were injected into the cell containing 205 µL EphA2 LBD. 200-400 µM peptides were titrated into 20-40 µM EphA2 LBD. Experimental data were analyzed using the Origin software package (Microcal). The integrated values for the reaction heats were normalized to the amount of injected peptide after blank subtraction.

[8] = target: T2, EphA2 extracellular domain fused to the …; assay: ELISA, inhibition of ephrin-A5 AP binding to immobilized EphA2 Fc; representative experiment; concentrations in nM
[9] = target: T2, EphA2 extracellular domain fused to the …; assay: competition ELISA: inhibition of ephrin-A5 AP binding to EphA2 Fc
[10] = target: T1, endogenous EphA2 expressed in PC3 …; assay: cell-based or functional assay; remark: listed apart in the source
[11] = target: T1, endogenous EphA2 expressed in PC3 …; assay: cell-based or functional assay; remark: listed apart in the source
[12] = target: T1, endogenous EphA2 expressed in PC3 …; assay: cell-based or functional assay; remark: listed apart in the source
[13] = target: T1, endogenous EphA2 expressed in PC3 …; assay: cell-based or functional assay; remark: listed apart in the source
[14] = target: T1, endogenous EphA2 expressed in PC3 …; assay: cell-based or functional assay; remark: listed apart in the source

T3 sequence (P29317 other isoform, or with tags, fused parts or gaps limits assumed, form in doubt): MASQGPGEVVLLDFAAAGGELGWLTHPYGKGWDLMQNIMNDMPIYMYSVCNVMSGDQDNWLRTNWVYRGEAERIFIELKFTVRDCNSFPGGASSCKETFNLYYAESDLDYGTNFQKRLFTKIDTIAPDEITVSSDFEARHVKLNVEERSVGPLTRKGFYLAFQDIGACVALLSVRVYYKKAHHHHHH
T2 sequence (P29317 whole entry, the tested form may be a part): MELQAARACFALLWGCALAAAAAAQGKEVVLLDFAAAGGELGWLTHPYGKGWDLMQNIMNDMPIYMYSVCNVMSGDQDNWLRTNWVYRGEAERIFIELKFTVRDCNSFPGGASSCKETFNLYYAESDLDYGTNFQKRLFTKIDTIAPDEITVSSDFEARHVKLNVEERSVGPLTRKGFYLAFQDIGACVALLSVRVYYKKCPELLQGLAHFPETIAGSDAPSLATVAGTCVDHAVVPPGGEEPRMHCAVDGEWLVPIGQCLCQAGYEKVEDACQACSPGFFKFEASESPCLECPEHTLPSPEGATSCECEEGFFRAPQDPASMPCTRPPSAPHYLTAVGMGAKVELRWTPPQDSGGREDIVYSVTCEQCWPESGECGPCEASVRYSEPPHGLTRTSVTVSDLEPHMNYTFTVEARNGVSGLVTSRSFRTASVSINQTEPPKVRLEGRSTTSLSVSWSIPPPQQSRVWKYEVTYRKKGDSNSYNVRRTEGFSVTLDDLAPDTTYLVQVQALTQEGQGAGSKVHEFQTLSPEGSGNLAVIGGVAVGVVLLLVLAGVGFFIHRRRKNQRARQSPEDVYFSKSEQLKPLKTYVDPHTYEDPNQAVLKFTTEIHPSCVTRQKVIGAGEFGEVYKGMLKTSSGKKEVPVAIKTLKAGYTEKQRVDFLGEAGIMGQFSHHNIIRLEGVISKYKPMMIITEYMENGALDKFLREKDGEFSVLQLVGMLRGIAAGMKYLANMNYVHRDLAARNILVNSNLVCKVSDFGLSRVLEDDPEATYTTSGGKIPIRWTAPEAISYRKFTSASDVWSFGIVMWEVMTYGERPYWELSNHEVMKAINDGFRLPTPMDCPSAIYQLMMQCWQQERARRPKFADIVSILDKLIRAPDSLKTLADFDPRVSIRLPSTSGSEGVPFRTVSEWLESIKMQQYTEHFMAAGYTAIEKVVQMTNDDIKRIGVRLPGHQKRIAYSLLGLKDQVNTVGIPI

B2: YSA-GSGSK-bio (peptide)
peptide: YSAYPDSVPMMSGSGSK(Biotin)
notes: YSA with C-terminal GSGSK linker and biotin on the lysine side chain; also called YSA-GSGSK-biotin; YSA-GSGSK-bio peptide
- IC50 [2]: 820 nM

B5: L223R/L254R/V255R (receptor)
chain: AQGKEVVLLDFAAAGGELGWLTHPYGKGWDLMQNIMNDMPIYMYSVCNVMSGDQDNWLRTNWVYRGEAERIFIELKFTVRDCNSFPGGASSCKETFNLYYAESDLDYGTNFQKRLFTKIDTIAPDEITVSSDFEARHVKLNVEERSVGPLTRKGFYLAFQDIGACVALLSVRVYYKKCPELLQGLAHFPETIAGSDAPSRATVAGTCVDHAVVPPGGEEPRMHCAVDGEWRRPIGQCLCQAGYEKVEDACQACSPGFFKFEASESPCLECPEHTLPSPEGATSCECEEGFFRAPQDPASMPCTRPPSAPHYLTAVGMGAKVELRWTPPQDSGGREDIVYSVTCEQCWPESGECGPCEASVRYSEPPHGLTRTSVTVSDLEPHMNYTFTVEARNGVSGLVTSRSFRTASVSINQTEPPKVRLEGRSTTSLSVSWSIPPPQQSRVWKYEVTYRKKGDSNSYNVRRTEGFSVTLDDLAPDTTYLVQVQALTQEGQGAGSKVHEFQTLSPEGSGNLAVIGGVAVGVVLLLVLAGVGFFIHRRRKNQRARQSPEDVYFSKSEQLKPLKTYVDPHTYEDPNQAVLKFTTEIHPSCVTRQKVIGAGEFGEVYKGMLKTSSGKKEVPVAIKTLKAGYTEKQRVDFLGEAGIMGQFSHHNIIRLEGVISKYKPMMIITEYMENGALDKFLREKDGEFSVLQLVGMLRGIAAGMKYLANMNYVHRDLAARNILVNSNLVCKVSDFGLSRVLEDDPEATYTTSGGKIPIRWTAPEAISYRKFTSASDVWSFGIVMWEVMTYGERPYWELSNHEVMKAINDGFRLPTPMDCPSAIYQLMMQCWQQERARRPKFADIVSILDKLIRAPDSLKTLADFDPRVSIRLPSTSGSEGVPFRTVSEWLESIKMQQYTEHFMAAGYTAIEKVVQMTNDDIKRIGVRLPGHQKRIAYSLLGLKDQVNTVGIPI
modifications: A C-terminal fluorescent protein tag (mTURQ donor or EYFP acceptor) is not carried in the letters.
notes: also called EphA2 L223R/L254R/V255R; clustering interface triple mutant; not shown: C-terminal fluorescent protein (mTURQ or EYFP) and any linker to it
- ΔG of dimerization [5]: -3.8 kcal/mol
- ΔG of dimerization [6]: -5 kcal/mol

B8: βA-WLA-YSPK-bio (peptide)
peptide: [βAla]WLAYPDSVPYSPK(Biotin)
- EC50 of EphA2 pY588 induction, immunoblot, PC3 cells, 15 min [10]: 37 nM
- IC50 of AKT S473 phosphorylation (pAKT), immunoblot, PC3 cells, 15 min [10]: 30 nM

B9: βA-WLA-YRPK (peptide)
peptide: [βAla]WLAYPDSVPYRPK
notes: also called BA-WLA-YRPK
- EC50 of EphA2 pY588 induction, immunoblot, PC3 cells, 15 min [11]: 300 nM
- IC50 of AKT S473 phosphorylation (pAKT), immunoblot, PC3 cells, 15 min [11]: 500 nM
- Kd [7]: 190 nM
- IC50 [2]: 55 nM
- IC50 [8]: 53 nM

B10: βA-WLA-YRPKam (peptide)
peptide: [βAla]WLAYPDSVPYRPK-NH2
notes: also called BA-WLA-YRPKam
- EC50 of restoration of pAKT (S473) in cells treated with 0.1 µg/ml ephrin-A1 Fc, immunoblot, PC3 cells [12]: 2.4 µM
- IC50 of inhibition of EphA2 pY588 induced by 0.1 µg/ml ephrin-A1 Fc, immunoblot, PC3 cells [12]: 3.2 µM
- Kd [7]: 110 nM
- IC50 [2]: 19 nM
- IC50 [8]: 24 nM

B15: βA-WLA-YGSK-bio (peptide)
peptide: [βAla]WLAYPDSVPYGSK(Biotin)
- EC50 of EphA2 pY588 induction, immunoblot, PC3 cells, 15 min [14]: 2.2 µM
- IC50 of AKT S473 phosphorylation (pAKT), immunoblot, PC3 cells, 15 min [14]: 0.93 µM

Other lines, results leading:

- EC50 of EphA2 pY588 induction, immunoblot, PC3 cells, 15 min [1]: 190 nM
- IC50 of AKT S473 phosphorylation (pAKT), immunoblot, PC3 cells, 15 min [1]: 370 nM
B1: βA-WLA-YRP-acK (peptide)
peptide: [βAla]WLAYPDSVPYRPK(Ac)

- IC50 of AKT S473 phosphorylation (pAKT), immunoblot, PC3 cells, 15 min [3]: 0.97 µM
B3: βA-WLA-YK-bio (peptide)
peptide: [βAla]WLAYPDSVPYK(Biotin)

- EC50 of EphA2 pY588 induction, immunoblot, PC3 cells, 15 min [4]: 100 nM
- IC50 of AKT S473 phosphorylation (pAKT), immunoblot, PC3 cells, 15 min [4]: 210 nM
B4: βA-WLA-YRPKam-bio (peptide)
peptide: [βAla]WLAYPDSVPYRPK(Biotin)-NH2

- Kd [7]: 8000 nM
- IC50 [2]: 4500 nM
- IC50 [8]: 4500 nM
B6: YSA-GSGSK (peptide)
peptide: YSAYPDSVPMMSGSGSK

- fold improvement in potency against βA-WLAam [9]: ~2 fold
- IC50 [2]: 410 nM
- IC50 [8]: 440 nM
B7: βA-WLA-Yam (peptide)
peptide: [βAla]WLAYPDSVPY-NH2
notes: also called bA-WLA-Yam; BA-WLA-Yam

- IC50 [8]: 14 nM
B11: K-bioA-WLA-YRPKam (peptide)
peptide: KAWLAYPDSVPYRPK
modifications: biotin on the N-terminal lysine (K-bio); C-terminal amide (am)

- IC50 [8]: 37 nM
B12: βA-WLA-YRPK-bio (peptide)
peptide: [βAla]WLAYPDSVPYRPK(Biotin)
notes: also called bA-WLA-YRPK-bio; BA-WLA-YRPK-bio

- EC50 of EphA2 pY588 induction, immunoblot, PC3 cells, 15 min [13]: 1 µM
B13: βA-WLA-YGSGK-bio (peptide)
peptide: [βAla]WLAYPDSVPYGSGK(Biotin)

- IC50 [2]: 300 nM
B14: βA-WLA-YSK-bio (peptide)
peptide: [βAla]WLAYPDSVPYSK(Biotin)
notes: also called bA-WLA-YSK-bio; BA-WLA-YSK-bio
